In patent US20060167227A1:

How the values were obtained:
[1] = molecular target: tau monoclonal antibody (Example 5, FIG. 5); assay: competitive ELISA
[2] = molecular target: tau monoclonal antibody (Example 5, FIG. 5); assay: competitive ELISA; printed as apparent affinity = antigen concentration for 50% competition with prototype tau type IA

Substance	fold decrease in affinity against prototype tau type IA (SEQ ID NO:1) [1] [fold]	IC50 [2] [µM]
deletion mutant SEQ ID NO: 21 (268-333,R4;del 239-267) (from UniProt O02828 288-353)	1000	–
prototype tau type IA (SEQ ID NO:1) (239-333,R4) (from UniProt O02828 259-353)	–	0.01
